Source: publication PMC2751816, “Functional, Non-Clonal IgM^a-Restricted B Cell Receptor Interactions with the HIV-1 Envelope gp41 Membrane Proximal External Region” (PLoS ONE, 2009)

Key:
[1] = target: gp41 MPER peptide (nominal 2F5 epitope of the HIV-1 gp41 membrane proximal external region), N-biotinylated (HIV-1); experiment: SPR; monomeric or F(ab)2 IgM fragments injected over biotinylated peptides anchored to a SA-coated sensor chip; BIAcore 3000, BIAevaluation 4.1
[2] = tested on: BALB/c B cells (gp41 MPER tetramer binding); experiment: Cold inhibition of APC-labeled gp41 MPER tetramer binding by unlabeled tetramers; assay type: cell-based, mouse (BALB/c); details: unlabeled competitor tetramer pre-incubated; Fig. 4A,B; average of three experiments (4B)
Procedure: FACS staining of single cell suspensions (≥2×10^6) was conducted using pre-mixed combinations of fluorochrome-labeled Abs and APC-conjugated B cell tetramers at empirically-determined optimal concentrations. All Abs were from BD unless otherwise stated. Primary antibodies used were: PerCP anti-B220, FITC anti-IgD, FITC, PE or PE-Cy7 anti-IgM, PE anti-CD5, FITC anti-CD11b, PE-Cy7 anti-CD19, FITC anti-CD21, PE-Cy7 anti-CD23 (eBiosciences), and PE-Cy7 anti-CD93 (eBiosciences). Other reagents included biotinylated Abs against dump channel markers: Thy1 (Abcam), F4/80 (Abcam), CD11c, Gr-1, TER-119, and NK-1.1, secondary staining SA-Texas Red conjugate; v-amine live/dead violet dye (Molecular Probes), and Fc block (anti-CD16/32).
Staining was conducted at 4°C in several sequential steps in FACS staining buffer (1X PBS with 2% FCS, 0.1% NaN3), washing twice between steps. Cells were first incubated with v-amine live/dead dye for 15 min, then stained with APC-labeled tetramers for 30 min (and in some experiments, cold tetramer was incubated at 10 fold molar excess for 1 h, prior to staining with APC-labeled tetramers). Cells were then stained with Fc block, followed by incubation with combinations of primary Abs, and secondary staining with SA-Texas Red, each for 30 min. Data (≥2.5×10^5 events/sample) were acquired using an LSRII flow cytometer and Cell Quest software (BD Immunocytometry systems). FACS Analysis was performed using FlowJo software (Tree Star). For analysis, cells were gated in the following order: single cells were gated based on fsc height vs. fsc area+ssc height vs. ssc profiles, lymphocytes were gated on fsc and ssc profile, residual dead cells were excluded by negative gating with v-amine live/dead dye, and irrelevant non-B cells were excluded by negative gating with dump markers.

Row | Substance | Kd [1] | inhibition of APC-labeled gp41 MPER tetramer binding (in words) [2]
1 | monomeric IgM^a fragment of the purified mouse TNP-KLH-specific IgM^a mAb, BD clone G155-228 (antibody) | 276 nM | –
2 | DWEYSLWLSN [dsDNA tetramers, double-stranded DNA (dsDNA) mimic tetramer made from the R4A peptide […], reference compound] | – | minimal competition with gp41 MPER binding
